Laboratory results from patent publication US6623738 (University of California, dated 2003).

B1: Sema IV-AP fusion protein (human Sema IV fused to alkaline phosphatase) (ligand, UniProt Q13275 19-785, looked up)
chain: SFPTQDHLPATPRVRLSFKELKATGTAHFFNFLLNTTDYRILLKDEDHDRMYVGSKDYVLSLDLHDINREPLIIHWAASPQRIEECVLSGKDVNGECGNFVRLIQPWNRTHLYVCGTGAYNPMCTYVNRGRRAQATPWTQTQAVRGRGSRATDGALRPMPTAPRQDYIFYLEPERLESGKGKCPYDPKLDTASALINEELYAGVYIDFMGTDAAIFRTLGKQTAMRTDQYNSRWLNDPSFIHAELIPDSAERNDDKLYFFFRERSAEAPQSPAVYARIGRICLNDDGGHCCLVNKWSTFLKARLVCSVPGEDGIETHFDELQDVFVQQTQDVRNPVIYAVFTSSGSVFRGSAVCVYSMADIRMVFNGPFAHKEGPNYQWMPFSGKMPYPRPGTCPGGTFTPSMKSTKDYPDEVINFMRSHPLMYQAVYPLQRRPLVVRTGAPYRLTTIAVDQVDAADGRYEVLFLGTDRGTVQKVIVLPKDDQELEELMLEEVEVFKDPAPVKTMTISSKRQQLYVASAVGVTHLSLHRCQAYGAACADCCLARDPYCAWDGQACSRYTASSKRRSRRQDVRHGNPIRQCRGFNSNANKNAVESVQYGVAGSAAFLECQPRSPQATVKWLFQRDPGDRRREIRAEDRFLRTEQGLLLRALQLSDRGLYSCTATENNFKHVVTRVQLHVLGRDAVHAALFPPLSMSAPPPPGAGPPTPPYQELAQLLAQPEVGLIHQYCQGYWRHVPPSPREAPGAPRSPEPQDQKKPRNRRHHPPDT
notes: written as in the name; Partially purified conditioned medium; also called Sema IV/Sema 3F; not shown: secreted alkaline phosphatase in pSecTag-A
B2: Sema E-AP fusion protein (mouse Sema E fused to alkaline phosphatase) (ligand, UniProt Q62181 21-751, looked up)
chain: GSSQPQARVYLTFDELRETKTSEYFSLSHQQLDYRILLMDEDQDRIYVGSKDHILSLNINNISQEPLSVFWPASTIKVEECKMAGKDPTHGCGNFVRVIQTFNRTHLYVCGSGAFSPVCTYLNRGRRSEDQVFMIDSKCESGKGRCSFNPNVNTVSVMINEELFSGMYIDFMGTDAAIFRSLTKRNAVRTDQHNSKWLSEPMFVDAHVIPDGTDPNDAKVYFFFKERLTDNNRSTKQIHSMIARICPNDTGGQRSLVNKWTTFLKARLVCSVTDEDGPETHFDELEDVFLLETDNPRTTLVYGIFTTSSSVFKGSAVCVYHLSDIQTVFNGPFAHKEGPNHQLISYQGRIPYPRPGTCPGGAFTPNMRTTKDFPDDVVTFIRNHPLMYNSIYPIHRRPLIVRIGTDYKYTKIAVDRVNAADGRYHVLFLGTDRGTVQKVVVLPTNSSASGELILEELEVFKNHVPITTMKISSKKQQLYVSSNEGVSQVSLHRCHIYGTACADCCLARDPYCAWDGHSCSRFYPTGKRRSRRQDVRHGNPLTQCRGFNLKAYRNAAEIVQYGVRNNSTFLECAPKSPQASIKWLLQKDKDRRKEVKLNERIIATSQGLLIRSVQDSDQGLYHCIATENSFKQTIAKINFKVLDSEMVAVVTDKWSPWTWAGSVRALPFHPKDILGAFSHSEMQLINQYCKDTRQQQQLGEEPQKMRGDYGKLKALINSRKSRNRRNQLPES
notes: written as in the name; Partially purified conditioned medium; not shown: secreted alkaline phosphatase of vector APtag-4
B3: AP fusion with Drosophila D-Sema II (ligand, UniProt Q24323 26-724, looked up)
chain: DYENTWNFYYERPCCTGNDQGNNNYGKHGADHVREFNCGKLYYRTFHMNEDRDTLYVGAMDRVFRVNLQNISSSNCNRDVINLEPTRDDVVSCVSKGKSQIFDCKNHVRVIQSMDQGDRLYVCGTNAHNPKDYVIYANLTHLPRSEYVIGVGLGIAKCPYDPLDNSTAIYVENGNPGGLPGLYSGTNAEFTKADTVIFRTDLYNTSAKRLEYKFKRTLKYDSKWLDKPNFVGSFDIGEYVYFFFRETAVEYINCGKAVYSRIARVCKKDVGGKNLLAHNWATYLKARLNCSISGEFPFYFNEIQSVYQLPSDKSRFFATFTTSTNGLIGSAVCSFHINEIQAAFNGKFKEQSSSNSAWLPVLNSRVPEPRPGTCVNDTSNLPDTVLNFIRSHPLMDKAVNHEHNNPVYYKRDLVFTKLVVDKIRIDILNQEYIVYYVGTNLGRIYKIVQYYRNGESLSKLLDIFEVAPNEAIQVMEISQTRKSLYIGTDHRIKQIDLAMCNRRYDNCFRCVRDPYCGWDKEANTCRPYELDLLQDVANETSDICDSSVLKKKIVVTYGQSVHLGCFVKIPEVLKNEQVTWYHHSKDKGRYEIRYSPTKYIETTERGLVVVSVNEADGGRYDCHLGGSLLCSYNITVDAHRCTPPNKSNDYQKIYSDWCHEFEKYKTAMKSWEKKQAQCSTRQNFSSNQHPNEIFRKPNV
notes: also called Drosophila Sema II; not shown: alkaline phosphatase (AP) reporter

Legend:
[1] = target: T1, mouse neuropilin-2(a5), myc-tagged, expressed in COS-7 cells (mouse, UniProt O35375 21-931); experiment: equilibrium binding of AP fusion to neuropilin-2-expressing COS cells (figure legend)
T1 construct: also called a5 isoform of neuropilin-2; SR2(a)5
T1 sequence: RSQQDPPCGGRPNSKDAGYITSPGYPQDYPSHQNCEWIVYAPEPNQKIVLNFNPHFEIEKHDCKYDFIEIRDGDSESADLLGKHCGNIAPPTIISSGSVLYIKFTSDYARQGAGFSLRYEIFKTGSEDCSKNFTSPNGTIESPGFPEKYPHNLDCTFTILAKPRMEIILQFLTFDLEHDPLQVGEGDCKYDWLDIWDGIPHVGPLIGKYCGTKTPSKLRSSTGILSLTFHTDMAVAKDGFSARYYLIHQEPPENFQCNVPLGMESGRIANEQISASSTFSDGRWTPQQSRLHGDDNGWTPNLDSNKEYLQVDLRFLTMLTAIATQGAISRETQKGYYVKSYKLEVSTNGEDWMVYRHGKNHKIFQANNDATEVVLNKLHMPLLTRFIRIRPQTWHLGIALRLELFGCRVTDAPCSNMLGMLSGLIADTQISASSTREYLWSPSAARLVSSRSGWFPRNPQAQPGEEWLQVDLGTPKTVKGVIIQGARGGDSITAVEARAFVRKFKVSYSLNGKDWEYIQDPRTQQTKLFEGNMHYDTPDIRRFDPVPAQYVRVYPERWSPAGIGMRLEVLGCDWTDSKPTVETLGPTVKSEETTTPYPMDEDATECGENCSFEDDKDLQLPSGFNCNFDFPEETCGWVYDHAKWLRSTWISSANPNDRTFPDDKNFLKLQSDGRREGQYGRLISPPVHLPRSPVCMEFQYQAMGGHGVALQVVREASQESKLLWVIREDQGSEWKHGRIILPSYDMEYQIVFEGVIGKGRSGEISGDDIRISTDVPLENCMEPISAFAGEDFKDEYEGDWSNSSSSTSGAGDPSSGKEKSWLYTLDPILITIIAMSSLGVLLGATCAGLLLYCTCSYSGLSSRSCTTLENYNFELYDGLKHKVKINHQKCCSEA
Method: (§1) FIGS. 5A–5C. Equilibrium binding of semaphorin-AP fusion proteins to neuropilin-expressing cells. Transfected or control COS cells were incubated with concentrated media containing the indicated concentrations of semaphorin-AP fusion proteins. AP activity derived from bound fusion proteins was measured […] at 405 nm; specific binding was obtained after subtraction of background from control cells. Specific binding curves to cells expressing neuropilin-1 (closed circles) or […] are shown for Sema III-AP (A), Sema E-AP (B), and Sema IV-AP (C). Dissociation constants for interaction with neuropilin-2-expressing cells were 0.29 for Sema E-AP and 0.09 nM for Sema IV-AP.
(§2) We estimated the binding affinity of the AP fusions of Sema III, Sema E and Sema IV to cells expressing neuropilin-1 or neuropilin-2 in equilibrium binding experiments. For these experiments, we used the a5 isoform of neuropilin-2. […] Those for Sema IV binding to neuropilin-1 and neuropilin-2 were 30 nM and 5 nM, respectively. […] Similar Kd values were obtained using the b5 isoform of neuropilin-2 and the degree of binding of different semaphorins to cells all isoforms tested appeared similar.

[2] = target: T1, mouse neuropilin-2(a5), myc-tagged, …; experiment: equilibrium binding of AP fusion to transfected COS cells (a5 isoform), Hill fit
Method: as §1, §2

[3] = target: T2, neuropilin-1 transiently expressed in COS-7 cells (Rattus norvegicus (Rat), UniProt Q9QWJ9 22-922); experiment: equilibrium binding of AP fusion to transfected COS cells, Hill fit
T2 construct: also called npn-1; SR1
Method: as §1, §2

[4] = target: T3, mouse neuropilin-2(a22), myc-tagged, expressed in COS-7 cells (mouse, UniProt O35375 21-931); experiment: AP fusion binding to transfected COS cells
T3 construct: also called SR2(a)22
T3 sequence: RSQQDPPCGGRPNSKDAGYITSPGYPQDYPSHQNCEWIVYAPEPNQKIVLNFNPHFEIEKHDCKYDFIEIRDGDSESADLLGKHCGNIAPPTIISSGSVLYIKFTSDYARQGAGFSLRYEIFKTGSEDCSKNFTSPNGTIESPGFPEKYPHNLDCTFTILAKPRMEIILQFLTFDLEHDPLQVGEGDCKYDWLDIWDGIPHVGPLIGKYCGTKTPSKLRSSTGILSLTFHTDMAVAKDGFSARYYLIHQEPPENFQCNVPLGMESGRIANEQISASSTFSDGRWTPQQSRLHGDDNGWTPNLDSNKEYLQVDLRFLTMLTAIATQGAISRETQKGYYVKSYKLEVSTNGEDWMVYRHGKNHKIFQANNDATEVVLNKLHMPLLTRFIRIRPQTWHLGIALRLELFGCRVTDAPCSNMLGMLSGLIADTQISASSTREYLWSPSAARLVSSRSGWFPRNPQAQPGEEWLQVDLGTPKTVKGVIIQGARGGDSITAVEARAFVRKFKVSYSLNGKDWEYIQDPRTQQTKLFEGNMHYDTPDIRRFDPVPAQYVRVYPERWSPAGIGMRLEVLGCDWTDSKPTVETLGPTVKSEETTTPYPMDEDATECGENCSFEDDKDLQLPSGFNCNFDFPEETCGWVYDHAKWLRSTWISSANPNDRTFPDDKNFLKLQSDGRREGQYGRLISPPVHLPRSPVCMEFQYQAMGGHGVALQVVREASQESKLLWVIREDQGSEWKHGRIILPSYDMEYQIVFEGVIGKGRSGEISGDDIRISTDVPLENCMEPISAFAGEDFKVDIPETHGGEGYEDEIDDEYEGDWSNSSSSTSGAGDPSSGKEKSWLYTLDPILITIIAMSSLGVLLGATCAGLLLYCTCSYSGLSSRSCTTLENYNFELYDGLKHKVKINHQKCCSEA

[5] = target: T4, mouse neuropilin-2(a0), myc-tagged, expressed in COS-7 cells (mouse, UniProt O35375 21-931); experiment: AP fusion binding to transfected COS cells
T4 construct: also called SR2(a)0; m-npn-2
T4 sequence: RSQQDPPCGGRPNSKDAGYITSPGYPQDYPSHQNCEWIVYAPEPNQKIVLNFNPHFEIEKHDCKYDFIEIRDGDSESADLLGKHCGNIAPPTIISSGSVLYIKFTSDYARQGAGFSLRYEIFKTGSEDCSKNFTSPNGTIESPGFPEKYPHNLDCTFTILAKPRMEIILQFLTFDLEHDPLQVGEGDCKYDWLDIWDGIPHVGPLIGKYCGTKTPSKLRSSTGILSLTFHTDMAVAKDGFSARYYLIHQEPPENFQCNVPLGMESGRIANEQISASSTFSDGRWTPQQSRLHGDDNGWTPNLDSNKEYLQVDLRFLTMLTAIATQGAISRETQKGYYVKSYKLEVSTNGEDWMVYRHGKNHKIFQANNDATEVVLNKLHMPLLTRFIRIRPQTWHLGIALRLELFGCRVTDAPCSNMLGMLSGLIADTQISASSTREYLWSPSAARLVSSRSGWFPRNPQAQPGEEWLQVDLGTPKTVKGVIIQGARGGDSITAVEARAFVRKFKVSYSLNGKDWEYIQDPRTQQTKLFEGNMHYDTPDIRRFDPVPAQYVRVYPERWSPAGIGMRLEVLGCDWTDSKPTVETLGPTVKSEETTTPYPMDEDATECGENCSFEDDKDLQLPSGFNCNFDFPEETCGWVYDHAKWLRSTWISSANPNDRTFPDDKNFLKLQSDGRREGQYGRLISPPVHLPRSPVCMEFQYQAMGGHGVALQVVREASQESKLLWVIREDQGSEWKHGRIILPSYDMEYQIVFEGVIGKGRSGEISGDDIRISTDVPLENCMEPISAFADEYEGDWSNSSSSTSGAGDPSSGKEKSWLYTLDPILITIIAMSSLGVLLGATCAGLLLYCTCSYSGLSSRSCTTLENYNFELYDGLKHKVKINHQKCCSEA

[6] = target: T1, mouse neuropilin-2(a5), myc-tagged, …; experiment: AP fusion binding to transfected COS cells

Binder	Kd [1] [nM]	Kd [2] [nM]	Kd [3] [nM]	binding result [4]	binding result [5]	binding result [6]
B1	0.09	5	30	–	–	–
B2	0.29	18	5	–	–	–
B3	–	–	–	no binding	no binding	no binding
